In paper PMC9482650, “Quantitative fragmentomics allow affinity mapping of interactomes” (Nature Communications, 2022):

How the values were obtained:
Assay in all cases: holdup assay
Design in all cases: key: below the threshold = too weak to quantify, mostly under pKd 3.1 to 4
Conditions in all cases: plain residues with an end cap or a label only (N-terminal biotin on a linker: ttds)
MPDZ_6, O75970 = target: T1, MPDZ_6, O75970
T1 sequence (O75970 1003-1099, limits assumed, looked up): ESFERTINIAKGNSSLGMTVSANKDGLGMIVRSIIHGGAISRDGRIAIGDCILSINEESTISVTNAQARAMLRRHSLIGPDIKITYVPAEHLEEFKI

Q8IUC4 = target: Q8IUC4
PDZD2_5, O15018 = target: T2, PDZD2_5, O15018
T2 sequence (O15018 2617-2716, limits assumed, looked up): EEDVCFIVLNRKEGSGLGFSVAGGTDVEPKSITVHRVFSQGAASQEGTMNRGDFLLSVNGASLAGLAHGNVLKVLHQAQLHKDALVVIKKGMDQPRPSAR

Q9UMS6 = target: Q9UMS6
MLLT4, P55196 = target: T3, MLLT4, P55196
T3 sequence (P55196 1002-1103, limits assumed, looked up): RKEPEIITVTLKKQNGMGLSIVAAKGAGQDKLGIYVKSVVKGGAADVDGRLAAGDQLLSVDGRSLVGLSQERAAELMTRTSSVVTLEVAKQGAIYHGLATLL

MPDZ_13, O75970 = target: T4, MPDZ_13, O75970
T4 sequence (O75970 1982-2070, limits assumed, looked up): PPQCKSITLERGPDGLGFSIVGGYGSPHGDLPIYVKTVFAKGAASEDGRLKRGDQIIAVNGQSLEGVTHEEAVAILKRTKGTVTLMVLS

NHERF1_2, O14745 = target: T5, NHERF1_2, O14745
T5 sequence (O14745 149-244, limits assumed, looked up): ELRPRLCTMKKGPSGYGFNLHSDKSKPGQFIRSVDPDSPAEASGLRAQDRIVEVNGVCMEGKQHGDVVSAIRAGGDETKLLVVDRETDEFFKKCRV

PDLIM3, Q53GG5 = target: T6, PDLIM3, Q53GG5
T6 sequence (Q53GG5 1-94, limits assumed, looked up): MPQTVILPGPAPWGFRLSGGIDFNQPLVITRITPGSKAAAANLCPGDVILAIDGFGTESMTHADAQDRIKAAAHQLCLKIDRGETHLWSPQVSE

LMO7, Q8WWI1 = target: LMO7, Q8WWI1
TJP3_1, O95049 = target: T7, TJP3_1, O95049
T7 sequence (O95049 6-103, limits assumed, looked up): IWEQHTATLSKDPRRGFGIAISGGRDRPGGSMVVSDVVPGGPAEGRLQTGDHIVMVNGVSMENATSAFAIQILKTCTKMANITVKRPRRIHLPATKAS

AHNAK2, Q8IVF2 = target: AHNAK2, Q8IVF2
PDZD2_4, O15018 = target: T8, PDZD2_4, O15018
T8 sequence (O15018 723-823, limits assumed, looked up): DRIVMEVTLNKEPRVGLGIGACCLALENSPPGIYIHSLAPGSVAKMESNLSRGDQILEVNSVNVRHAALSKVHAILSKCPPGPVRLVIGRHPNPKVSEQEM

O43166 = target: O43166
Q96HC4 = target: Q96HC4
O15021 = target: O15021
MAGI1_5, Q96QZ7 = target: MAGI1_5, Q96QZ7
PREX2_2, Q70Z35 = target: T9, PREX2_2, Q70Z35
T9 sequence (Q70Z35 672-764, limits assumed, looked up): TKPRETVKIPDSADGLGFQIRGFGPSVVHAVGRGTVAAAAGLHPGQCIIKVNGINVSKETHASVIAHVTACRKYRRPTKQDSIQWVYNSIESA

LNX2_4, Q8N448 = target: T10, LNX2_4, Q8N448
T10 sequence (Q8N448 595-690, limits assumed, looked up): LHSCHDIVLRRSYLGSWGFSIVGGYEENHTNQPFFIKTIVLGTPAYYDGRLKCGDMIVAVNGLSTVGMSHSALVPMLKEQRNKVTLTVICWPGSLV

LIMK1, P53667 = target: LIMK1, P53667
Q13009 = target: Q13009
TJP1_1, Q07157 = target: TJP1_1, Q07157
PARD3B_2, Q8TEW8 = target: PARD3B_2, Q8TEW8
SIPA1L3, O60292 = target: T11, SIPA1L3, O60292
T11 sequence (O60292 961-1052, limits assumed, looked up): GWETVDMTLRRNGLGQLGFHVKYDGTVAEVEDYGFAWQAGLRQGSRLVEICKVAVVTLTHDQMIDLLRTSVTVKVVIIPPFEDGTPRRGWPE

MAGI3_4, Q5TCQ9 = target: MAGI3_4, Q5TCQ9
Q5TCQ9 = target: Q5TCQ9
PREX1_1, Q8TCU6 = target: PREX1_1, Q8TCU6

Measured: pKd

Chain of PREX1_1, Q8TCU6 (Q8TCU6 608-718): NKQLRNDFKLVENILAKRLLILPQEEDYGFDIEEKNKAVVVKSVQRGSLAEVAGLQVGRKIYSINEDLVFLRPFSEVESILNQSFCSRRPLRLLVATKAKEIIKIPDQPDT
Chain of AHNAK2, Q8IVF2 (Q8IVF2 108-193): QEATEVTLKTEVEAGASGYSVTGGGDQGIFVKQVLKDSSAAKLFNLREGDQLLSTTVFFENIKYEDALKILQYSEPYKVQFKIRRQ
Chain of MAGI1_5, Q96QZ7 (Q96QZ7 986-1098): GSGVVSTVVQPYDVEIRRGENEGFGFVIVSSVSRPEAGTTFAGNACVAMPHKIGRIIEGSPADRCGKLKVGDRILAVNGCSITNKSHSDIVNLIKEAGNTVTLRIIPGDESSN
Chain of TJP1_1, Q07157 (Q07157 18-120): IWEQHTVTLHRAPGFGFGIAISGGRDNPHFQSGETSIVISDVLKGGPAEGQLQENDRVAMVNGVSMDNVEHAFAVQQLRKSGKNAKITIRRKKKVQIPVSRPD
Chain of LMO7, Q8WWI1 (Q8WWI1 1037-1138): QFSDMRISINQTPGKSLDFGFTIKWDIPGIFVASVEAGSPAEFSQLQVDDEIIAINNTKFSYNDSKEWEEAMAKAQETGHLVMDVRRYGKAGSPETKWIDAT
Chain of MAGI3_4, Q5TCQ9 (Q5TCQ9 716-815): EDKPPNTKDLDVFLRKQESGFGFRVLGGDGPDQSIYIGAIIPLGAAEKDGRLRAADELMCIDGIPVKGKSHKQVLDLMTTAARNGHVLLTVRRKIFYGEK
Chain of LIMK1, P53667 (P53667 155-268): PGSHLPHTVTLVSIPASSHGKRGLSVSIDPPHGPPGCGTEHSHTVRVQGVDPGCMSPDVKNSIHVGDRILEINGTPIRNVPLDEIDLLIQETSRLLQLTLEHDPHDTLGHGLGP
Chain of PARD3B_2, Q8TEW8 (Q8TEW8 376-471): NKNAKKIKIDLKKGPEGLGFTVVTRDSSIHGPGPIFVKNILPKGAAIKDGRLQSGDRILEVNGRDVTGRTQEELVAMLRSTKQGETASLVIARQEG

B1: KCNA5, P22460 (peptide)
chain: CLDTSRETDL
below the threshold: MPDZ_6, O75970 | Q8IUC4 | PDZD2_5, O15018 | Q9UMS6 | MLLT4, P55196 | MPDZ_13, O75970 | NHERF1_2, O14745 | PDLIM3, Q53GG5 | LMO7, Q8WWI1 | TJP3_1, O95049 | AHNAK2, Q8IVF2 | PDZD2_4, O15018 | O43166 | Q96HC4 | O15021 | MAGI1_5, Q96QZ7 | PREX2_2, Q70Z35 | LNX2_4, Q8N448 | Q13009 | TJP1_1, Q07157 | PARD3B_2, Q8TEW8 | SIPA1L3, O60292 | MAGI3_4, Q5TCQ9 | Q5TCQ9 | PREX1_1, Q8TCU6
4.3: LIMK1, P53667

B2: SLCO1C1, Q9NYB5 (peptide)
chain: NYWPGKETQL
4.73: LNX2_4, Q8N448
below the threshold: MPDZ_6, O75970 | Q8IUC4 | PDZD2_5, O15018 | Q9UMS6 | MLLT4, P55196 | MPDZ_13, O75970 | NHERF1_2, O14745 | PDLIM3, Q53GG5 | LMO7, Q8WWI1 | TJP3_1, O95049 | PDZD2_4, O15018 | O43166 | Q96HC4 | O15021 | PREX2_2, Q70Z35 | LIMK1, P53667 | Q13009 | TJP1_1, Q07157 | PARD3B_2, Q8TEW8 | SIPA1L3, O60292 | MAGI3_4, Q5TCQ9 | Q5TCQ9 | PREX1_1, Q8TCU6
4.47: MAGI1_5, Q96QZ7
4.41: AHNAK2, Q8IVF2

B3: ASIC3, Q9UHC3 (peptide)
chain: HRTCYLVTQL
4.17: TJP1_1, Q07157
3.99: PREX1_1, Q8TCU6
5.13: MAGI1_5, Q96QZ7
below the threshold: MPDZ_6, O75970 | Q8IUC4 | PDZD2_5, O15018 | Q9UMS6 | MLLT4, P55196 | MPDZ_13, O75970 | PDLIM3, Q53GG5 | LMO7, Q8WWI1 | TJP3_1, O95049 | AHNAK2, Q8IVF2 | PDZD2_4, O15018 | O43166 | Q96HC4 | O15021 | PREX2_2, Q70Z35 | LNX2_4, Q8N448 | Q13009 | PARD3B_2, Q8TEW8 | SIPA1L3, O60292 | MAGI3_4, Q5TCQ9 | Q5TCQ9
4.35: NHERF1_2, O14745

B4: MAP2K2, P36507 (peptide)
chain: QPGTPTRTAV
below the threshold: MPDZ_6, O75970 | Q8IUC4 | PDZD2_5, O15018 | Q9UMS6 | MLLT4, P55196 | MPDZ_13, O75970 | NHERF1_2, O14745 | PDLIM3, Q53GG5 | LMO7, Q8WWI1 | TJP3_1, O95049 | AHNAK2, Q8IVF2 | PDZD2_4, O15018 | O43166 | Q96HC4 | O15021 | MAGI1_5, Q96QZ7 | PREX2_2, Q70Z35 | LNX2_4, Q8N448 | Q13009 | TJP1_1, Q07157 | PARD3B_2, Q8TEW8 | SIPA1L3, O60292 | MAGI3_4, Q5TCQ9 | Q5TCQ9 | PREX1_1, Q8TCU6
4.2: LIMK1, P53667
